Test results reported in patent US20240400614A1, “CLEAVABLE PEPTIDES AND METHODS OF USE THEREOF” (Bright Peak Therapeutics AG, priority 2023, published 2024).
Blank lines part the entries; values can stand above or below the substance they belong to. Square brackets hold non-standard residues; d marks the D form. Ends that are not written are not given here. Tyr(3-NO2) = N[C@@H](Cc1ccc(O)c([N+](=O)[O-])c1)C(=O)O; 2Abz = Nc1ccccc1C(=O)O

Assays:
Type in all cases: biochemical
[1] = biological target: uPA (Homo sapiens, UniProt P00749); test: FRET peptide cleavage efficiency with uPA
[2] = biological target: Kallikrein-3 (Homo sapiens, UniProt P07288); test: FRET peptide cleavage efficiency with Kallikrein-3; settings: peptide 200 uM, Kallikrein-3 2 μg/ml, 37° C., pH 8
Chain of Kallikrein-3 (P07288 25-261, species assumed): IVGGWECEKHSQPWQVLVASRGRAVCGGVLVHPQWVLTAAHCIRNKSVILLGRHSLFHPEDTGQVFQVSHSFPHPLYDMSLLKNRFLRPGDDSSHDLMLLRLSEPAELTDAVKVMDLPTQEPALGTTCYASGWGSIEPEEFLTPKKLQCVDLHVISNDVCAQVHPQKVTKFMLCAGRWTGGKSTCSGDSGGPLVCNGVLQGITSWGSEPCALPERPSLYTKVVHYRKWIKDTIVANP

[3] = biological target: T1, matriptase (Homo sapiens, UniProt Q9Y5Y6); test: FRET peptide cleavage efficiency with matriptase
T1 construct: purchased R&D Systems 3946-SEB
T1 sequence (Q9Y5Y6 615-855 limits assumed): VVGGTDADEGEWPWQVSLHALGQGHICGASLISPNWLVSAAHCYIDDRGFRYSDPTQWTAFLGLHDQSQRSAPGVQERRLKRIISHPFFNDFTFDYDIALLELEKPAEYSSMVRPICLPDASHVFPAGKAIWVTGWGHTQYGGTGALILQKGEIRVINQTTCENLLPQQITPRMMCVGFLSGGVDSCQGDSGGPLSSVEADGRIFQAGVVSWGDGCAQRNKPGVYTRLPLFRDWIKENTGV

[4] = biological target: T2, MMP-2 (Homo sapiens, UniProt P08253); test: FRET peptide cleavage efficiency with MMP-2
T2 construct: purchased SIGMA PF023
T2 sequence (P08253 110-660): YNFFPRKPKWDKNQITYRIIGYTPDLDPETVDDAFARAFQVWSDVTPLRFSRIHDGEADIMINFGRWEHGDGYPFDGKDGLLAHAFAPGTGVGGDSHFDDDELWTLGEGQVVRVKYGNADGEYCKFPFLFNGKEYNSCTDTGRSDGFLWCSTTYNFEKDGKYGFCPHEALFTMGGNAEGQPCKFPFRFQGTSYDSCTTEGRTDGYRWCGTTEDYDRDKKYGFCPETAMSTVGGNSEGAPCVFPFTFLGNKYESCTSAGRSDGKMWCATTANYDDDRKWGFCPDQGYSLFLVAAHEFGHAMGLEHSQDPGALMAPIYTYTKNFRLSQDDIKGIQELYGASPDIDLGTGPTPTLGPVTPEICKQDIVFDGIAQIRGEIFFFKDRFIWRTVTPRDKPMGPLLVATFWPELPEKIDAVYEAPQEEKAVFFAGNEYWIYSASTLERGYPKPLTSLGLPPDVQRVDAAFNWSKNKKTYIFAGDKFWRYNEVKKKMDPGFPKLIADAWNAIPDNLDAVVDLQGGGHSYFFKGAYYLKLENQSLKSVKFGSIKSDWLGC

[5] = biological target: T3, MMP-7 (Homo sapiens, UniProt P09237); test: FRET peptide cleavage efficiency with MMP-7 (standard pH 7.5; also pH 6.5)
T3 construct: purchased SIGMA CC1059
T3 sequence (P09237 95-267): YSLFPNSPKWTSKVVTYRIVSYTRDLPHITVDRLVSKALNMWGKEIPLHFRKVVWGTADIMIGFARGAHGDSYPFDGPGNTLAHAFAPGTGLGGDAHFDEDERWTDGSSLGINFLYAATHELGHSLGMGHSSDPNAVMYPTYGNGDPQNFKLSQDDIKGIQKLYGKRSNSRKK

[6] = biological target: T4, MMP-9 (Homo sapiens, UniProt P14780); test: FRET peptide cleavage efficiency with MMP-9 (standard pH 7.5; also pH 6.5)
T4 construct: purchased SIGMA PF024
T4 sequence (P14780 94-707): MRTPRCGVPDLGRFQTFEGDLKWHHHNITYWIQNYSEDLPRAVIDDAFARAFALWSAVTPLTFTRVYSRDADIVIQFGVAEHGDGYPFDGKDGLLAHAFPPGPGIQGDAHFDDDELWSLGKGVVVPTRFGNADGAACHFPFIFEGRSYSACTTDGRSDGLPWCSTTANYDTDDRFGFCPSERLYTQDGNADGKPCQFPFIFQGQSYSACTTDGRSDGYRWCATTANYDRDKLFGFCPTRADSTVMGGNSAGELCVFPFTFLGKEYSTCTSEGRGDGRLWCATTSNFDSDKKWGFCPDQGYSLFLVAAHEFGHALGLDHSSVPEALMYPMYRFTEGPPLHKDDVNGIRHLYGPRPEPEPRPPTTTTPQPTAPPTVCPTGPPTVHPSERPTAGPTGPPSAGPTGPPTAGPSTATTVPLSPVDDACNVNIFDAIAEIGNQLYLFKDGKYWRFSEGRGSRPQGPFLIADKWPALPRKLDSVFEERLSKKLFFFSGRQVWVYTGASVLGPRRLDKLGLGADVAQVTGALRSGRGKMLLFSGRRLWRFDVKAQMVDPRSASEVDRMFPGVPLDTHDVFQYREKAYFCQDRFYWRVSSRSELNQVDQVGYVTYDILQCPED

[7] = 200 uM linker, 1 ug/ml protease, 37° C., buffer A pH 8.5
[8] = t = 60 min, 200 uM linker, 1 ug/ml protease, 37° C., buffer A pH 8.5
[9] = t = 120 min, 200 uM linker, 1 ug/ml protease, 37° C., buffer A pH 8.5
[10] = t = 15 min, 200 uM linker, 1 ug/ml protease, 37° C., buffer B pH 9.0
[11] = t = 60 min, 200 uM linker, 1 ug/ml protease, 37° C., buffer B pH 9.0
[12] = 200 uM linker, 1 ug/ml protease, 37° C., buffer B pH 9.0
[13] = t = 15 min, 200 uM linker, 1 ug/ml protease, 37° C., buffer C pH 7.5
[14] = t = 60 min, 200 uM linker, 1 ug/ml protease, 37° C., buffer C pH 7.5
[15] = t = 120 min, 200 uM linker, 1 ug/ml protease, 37° C., buffer C pH 7.5

% cleavage uPA t = 15 min [1, 7]: 0%
% cleavage uPA t = 60 min [1, 8]: 0%
% cleavage uPA t = 120 min [1, 9]: 0%
Kallikrein-3 t = 1 h % cleavage [2]: 20%
Kallikrein-3 t = 3 h % cleavage [2]: 51%
Kallikrein-3 t = 6 h % cleavage [2]: 79%
Kallikrein-3 t = 8 h % cleavage [2]: 91%
% cleavage Matriptase t = 15 min [3, 10]: 1%
% cleavage Matriptase t = 60 min [3, 11]: 3%
% cleavage Matriptase t = 120 min [3, 12]: 5%
% cleavage MMP-2 t = 15 min [4, 13]: 1%
% cleavage MMP-2 t = 60 min [4, 14]: 4%
% cleavage MMP-2 t = 120 min [4, 15]: 6%
Substance: RRLHYSL ([2Abz]RRLHYSL[Tyr(3-NO2)]-NH2) [LNK073]

Kallikrein-3 t = 1 h % cleavage [2]: 31%
Kallikrein-3 t = 3 h % cleavage [2]: 70%
Kallikrein-3 t = 6 h % cleavage [2]: 94%
Kallikrein-3 t = 8 h % cleavage [2]: 100%
% cleavage Matriptase t = 15 min [3, 10]: 0%
% cleavage Matriptase t = 60 min [3, 11]: 0%
% cleavage Matriptase t = 120 min [3, 12]: 0%
% cleavage MMP-2 t = 15 min [4, 13]: 2%
% cleavage MMP-2 t = 60 min [4, 14]: 9%
% cleavage MMP-2 t = 120 min [4, 15]: 18%
Substance: SQLYSSPG ([2Abz]SQLYSSPG[Tyr(3-NO2)]-NH2) [LNK068]

Kallikrein-3 t = 1 h % cleavage [2]: 8%
Kallikrein-3 t = 3 h % cleavage [2]: 22%
Kallikrein-3 t = 6 h % cleavage [2]: 41%
Kallikrein-3 t = 8 h % cleavage [2]: 51%
% cleavage Matriptase t = 15 min [3, 10]: 0%
% cleavage Matriptase t = 60 min [3, 11]: 0%
% cleavage Matriptase t = 120 min [3, 12]: 0%
% cleavage MMP-2 t = 15 min [4, 13]: 1%
% cleavage MMP-2 t = 60 min [4, 14]: 5%
% cleavage MMP-2 t = 120 min [4, 15]: 10%
Substance: SQYQSSPG ([2Abz]SQYQSSPG[Tyr(3-NO2)]-NH2) [LNK067]

Kallikrein-3 t = 1 h % cleavage [2]: 14%
Kallikrein-3 t = 3 h % cleavage [2]: 40%
Kallikrein-3 t = 6 h % cleavage [2]: 67%
Kallikrein-3 t = 8 h % cleavage [2]: 78%
% cleavage Matriptase t = 15 min [3, 10]: 0%
% cleavage Matriptase t = 60 min [3, 11]: 0%
% cleavage Matriptase t = 120 min [3, 12]: 0%
% cleavage MMP-2 t = 15 min [4, 13]: 1%
% cleavage MMP-2 t = 60 min [4, 14]: 5%
% cleavage MMP-2 t = 120 min [4, 15]: 9%
Substance: SSLQSSPG ([2Abz]SSLQSSPG[Tyr(3-NO2)]-NH2) [LNK066]

Kallikrein-3 t = 1 h % cleavage [2]: 32%
Kallikrein-3 t = 3 h % cleavage [2]: 68%
Kallikrein-3 t = 6 h % cleavage [2]: 93%
Kallikrein-3 t = 8 h % cleavage [2]: 100%
% cleavage Matriptase t = 15 min [3, 10]: 0%
% cleavage Matriptase t = 60 min [3, 11]: 0%
% cleavage Matriptase t = 120 min [3, 12]: 0%
% cleavage MMP-2 t = 15 min [4, 13]: 3%
% cleavage MMP-2 t = 60 min [4, 14]: 12%
% cleavage MMP-2 t = 120 min [4, 15]: 21%
Substance: SSLYSSPG ([2Abz]SSLYSSPG[Tyr(3-NO2)]-NH2) [LNK065]

% cleavage uPA t = 60 min ([1]; pH 6.5, t = 60 min (Table 7)): 0%
% cleavage uPA t = 120 min ([1]; pH 6.5, t = 120 min (Table 7)): 0%
% cleavage uPA t = 60 min ([1]; pH 7.5, t = 60 min (Table 7)): 10%
% cleavage uPA t = 120 min ([1]; pH 7.5, t = 120 min (Table 7)): 19%
% cleavage uPA t = 15 min [1, 7]: 5%
% cleavage uPA t = 60 min [1, 8]: 16%
% cleavage uPA t = 120 min [1, 9]: 27%
% cleavage MMP-7 t = 15 min ([5]; t = 15 min (Table 9)): 22%
% cleavage MMP-7 t = 60 min ([5]; t = 60 min (Table 9)): 69%
% cleavage MMP-7 t = 120 min ([5]; t = 120 min (Table 9)): 83%
% cleavage Matriptase t = 15 min ([3]; pH 6.5, t = 15 min (Table 7)): 100%
% cleavage Matriptase t = 60 min ([3]; pH 6.5, t = 60 min (Table 7)): 100%
% cleavage Matriptase t = 15 min ([3]; pH 7.5, t = 15 min (Table 7)): 100%
% cleavage Matriptase t = 60 min ([3]; pH 7.5, t = 60 min (Table 7)): 100%
% cleavage Matriptase t = 15 min [3, 10]: 100%
% cleavage Matriptase t = 60 min [3, 11]: 100%
% cleavage Matriptase t = 120 min [3, 12]: 100%
% cleavage MMP-2 t = 15 min ([4]; pH 6.5, t = 15 min (Table 7)): 26%
% cleavage MMP-2 t = 60 min ([4]; pH 6.5, t = 60 min (Table 7)): 64%
% cleavage MMP-2 t = 15 min ([4]; pH 7.5, t = 15 min (Table 7)): 24%
% cleavage MMP-2 t = 60 min ([4]; pH 7.5, t = 60 min (Table 7)): 64%
% cleavage MMP-2 t = 15 min ([4]; t = 15 min (Table 9)): 20%
% cleavage MMP-2 t = 15 min [4, 13]: 23%
% cleavage MMP-2 t = 60 min ([4]; t = 60 min (Table 9)): 64%
% cleavage MMP-2 t = 60 min [4, 14]: 66%
% cleavage MMP-2 t = 120 min ([4]; t = 120 min (Table 9)): 100%
% cleavage MMP-2 t = 120 min [4, 15]: 88%
% cleavage MMP-9 t = 15 min ([6]; t = 15 min (Table 9)): 60%
% cleavage MMP-9 t = 60 min ([6]; t = 60 min (Table 9)): 98%
% cleavage MMP-9 t = 120 min ([6]; t = 120 min (Table 9)): 100%
Substance: SSRGRRGPYMLQG ([2Abz]SSRGRRGPYMLQG[Tyr(3-NO2)]-NH2) [LNK021]
